The assay concerns the target receptor binding domain (RBD) of the SARS-CoV-2 spike protein, WT (SARS-CoV-2, UniProt P0DTC2). Put plainly: FACS. (In general: Flow cytometry measures light scatter and fluorescence of single cells or particles in a stream.)

B1: Delta-6 scFv (scFv, V domains shown)
VH: EVQLLESGGGLVQPGGTLRLSCAASGFIVSSNYMSWVRQAPGKGLEWVSLVYPGGSTYYADSVKGRFTVSRDNSKNTLYLQMNSLRAEDMAVYYCARDLPSGVDAVDAFDIWGQGTMVTVSS
VL: DIRVTQSPSSLSASVGDRVSITCRASQIISGYLNWYQQKPGSAPQLLIYASSSLQSGVPPRFSGSRSGTEFTLTISSLQPEDFATYYCQQTYSIPFTFGPGTKVDIK
Usually Kd stands for the constant that tells how readily two partners part at equilibrium. High values mean lower affinity, low ones higher affinity. For the molecule B1, binding was put at a Kd of 6.3 nM.

(Values after paper PMC12520519 (2025).)
